This note sets out measurements from the nanobody polyreactivity screen of Harvey et al. (2022).

The series can be described thus: yeast display, Sf9 membrane polyspecificity reagent, FACS + sequencing; frameworks hold sequencing errors. The procedure, abridged: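 In a synthetic yeast display library (Saccharomyces cerevisiae BJ5465), nanobody expression was induced with galactose for 36–48 hours. FACS gates were set low and high (top ~1%) using anti-HA fluorescence for expression and streptavidin fluorescence for binding of the Sf9 membrane reagent. Each polyreactivity label is drawn from the gate of origin.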
Regarding “QVQLVESGGGLFQAGGSLRLSCAASGRIFGLYAMGWYRQAPGKERELVAAISRGGGSTYYADSVKGRFTISRDNAKNTVYLQMNSLKAEDTAFDFCATGLGYFCRLDYWGQGTQLTVSS”, the “polyreactivity (PSR sort gate)” value is “low polyreactivity”.

With “QVQLVESGGGLFQAGGSLRLSCAASGRIFGYNAMAGYRQAPGKERELVAVITYSGGSTYYADSVKGRFTISRDNAKNTVYLQMKSLKPEDTAVYYCIARPIDRYSGSGKQWPDYNYWGQGTQFTVSS”, the “polyreactivity (PSR sort gate)” value is listed as “low polyreactivity”.

Consider “QVQLVESGGGLFQAGGSLRLSCAASGRIFVFYAMGWYRQAPGKEMELVAAISKSVGPTYYADSVKGRFTISRDYAKNTVYLQMNSLKPEDTAVYYCNKRSASDLWPQYGYWGQGTQVTVSS”, for which the “polyreactivity (PSR sort gate)” value was “low polyreactivity”.

In the case of “QVQLVESGGGLFQAGGSLRLSCAASGRIFYYNAMGWYRQAPGKEREFVAAITYRGGSTYYADSVKGRFTISRDNAKITVYLQMNSLKPEDTAVYYCAARSAWQVAPRGRTVAFDYWGQGTQVTVSS”, the “polyreactivity (PSR sort gate)” value is on record as “high polyreactivity”.

Take “QVQLVESGGGLFQAGGSLRLSCAASGRTFDVYDMGWYRQAPGKERELVAAITWSGGSTYYADSVKGRFTISRDNAKNTVYLQMNSLKPEDTAVYYCAAGYYYFWTYDYWGQGTQVTVSS”: the “polyreactivity (PSR sort gate)” value is listed as “low polyreactivity”.

With “QVQLVESGGGLFQAGGSLRLSCAASGRTFWAYAMGWYRQAPGKERELVAAITTSRGSTNYADSVKGRFTISRDNAKNTVYLQMNSLKPEDTAVYDCNADPTYHVVIGVGYWGQGTQVTVCS”, the “polyreactivity (PSR sort gate)” value is “low polyreactivity”.

With “QVQLVESGGGLFQAGGSLRLSCAASGSIFFENAMGWYRQAPGKEREFVAASTWSAGGRTDYADSVKGRFTISRDNAKTTVYLQMNSLKPEDTAVYYCARYPTNILYIPVRGYTDMDYWGQGTQVTVSW”, the “polyreactivity (PSR sort gate)” value was “low polyreactivity”.

For the sequence “QVQLVESGGGLFQAGGSLRLSCAASGSIFGKYTMGWYRQAPGKERELVAGITYRAGSTYYADSVKGRFTISRDNAKNTVYLQMNSLKPEDTAVYYCAARFYFRWYYYGSYANYWGQGTQVTVSS”, the “polyreactivity (PSR sort gate)” value is “high polyreactivity”.

As for “QVQLVESGGGLFQAGGSLRLSCAASGSIFSKYAMAWYRQAPGKERELVAAITLNGGSTYYADSVKGRFTISRDNAKNTVYLQMNSLNPEDTAVYYCAKSDRPWWGYYYQFDYWGQGTQVTVSS”, the “polyreactivity (PSR sort gate)” value is reported as “low polyreactivity”.

Consider “QVQLVESGGGLFQAGGSLRLSCAASGSIFWSYDMGWYRQAPGKERELVATITSGDSTYYADSVKGRFTISRDNAKNTVYLQMNSLKPEDTAVYYCAAGTYYRRTYWHREYDYWGQGTQVTVSS”, for which the “polyreactivity (PSR sort gate)” value is “low polyreactivity”.

Consider “QVQLVESGGGLFQAGGSLRLSCAASGSTFGNNAMGWYRQAPGKERELVAAISRSGGNTYYADSVKGRFTISRDNAKNTVYLQMNSLKPEDTAVYYCAAGKLYAAGVYYLRRLYYWGQGTQVTVSS”, for which the “polyreactivity (PSR sort gate)” value was “high polyreactivity”.

Turning to “QVQLVESGGGLFQAGGSLRLSCAASGSTFRFNAKGWYRQAPGKERQFVAAIRFTGGSTYYADSVKGRFTISRDNAKNTVYLQMNSLKPEDTAVYYCINADEYSTVEYDYWGQGTQVSVSS”, the “polyreactivity (PSR sort gate)” value is on record as “low polyreactivity”.

Regarding “QVQLVESGGGLFQAGGSLRLSCAASGSTFVYNDMGWYRKATGKERELVAYISTSGGSTYYADSVKGRFTISRDNAKNTVYLQMNSLKPEDTAVYYCNAKRSGPWFLHVPVYYWGQGTQVTVSS”, the “polyreactivity (PSR sort gate)” value is given as “low polyreactivity”.

Regarding “QVQLVESGGGLFQAGGSLRLSCAASGSTFYNYAMGWYRQAPGIERELVAAISSGGSTNYADSVKGRFTISRDNAKYTVFLQMNSLKPEDSAVYYCARRHRVYASRNGHDYWGQGTQVTVSS”, the “polyreactivity (PSR sort gate)” value is given as “low polyreactivity”.

“QVQLVESGGGLFQAGGSLRLSCAASGSTFYSYAMGWYRKAPGKERELVAAISRNGGYTYYADSVKGRFTISRDNAKNTVYLQMNSLKPEDTAVYYCAALRYVHGYDYWGQGTQVTGSS”: the “polyreactivity (PSR sort gate)” value is “high polyreactivity”.

Turning to “QVQLVESGGGLFQAGGSLRLSCAASGSTIQQYAMGWYRQAPGKEREFVAAISWRGGRTYYADSVKGRFTISRDNAKNTVYLQMNRLKPEDTAVYYCAVDPSIYRLSAYYYDYWGQGTQVTVSS”, the “polyreactivity (PSR sort gate)” value was “low polyreactivity”.

For the sequence “QVQLVESGGGLFQAGGSLRLSCAATGRTIVIYAMRWYRQAPGKERELVAAISFSGDTAYYADSVKGRFTISRDNAKNTVYLQMNSLKPDHTAVYYCAAVTQPWSYYRRDYWGQGTQVTVSS”, the “polyreactivity (PSR sort gate)” value was “high polyreactivity”.

On to “QVQLVESGGGLFQAGGSLRLSCAAYGRTFYVYALGWYRQAPGKEREFVAAITSSGGSTYYADSVKGRFTISRDNAKNTVYLQMNSLKPEDTAVYYCAADDWDWENDYWGQGTQVTVSS”, for which the “polyreactivity (PSR sort gate)” value was “low polyreactivity”.

Take “QVQLVESGGGLFQAGGSLRLSCAPSGHIFFYYTMGWYRPAPGKERELVAGITIGGSTNYADSVKGRFTISRDNAKNTVYLQMNSLKPEDTAVYYCNVVKYVYIYSYWESYYWGQGTQVTVSS”: the “polyreactivity (PSR sort gate)” value was “low polyreactivity”.

With “QVQLVESGGGLFQAGGSLRLSCAPSGRIFRYNAMGWYRQAPGKERELVASISGSGGSTYYADSVKGRFTISRDNAKNTVYLQMNSLTPEDTAVYYCAAQWRYQYPESLESYYWGQGTQVTVSS”, the “polyreactivity (PSR sort gate)” value is recorded as “high polyreactivity”.

Take “QVQLVESGGGLFQARGSLRLSCAASGSTFGFYARGWYRQATGKERELVAASSRGGSTNYADSVKGRFTISRDNAKNTVYLQLNSLKPEDTAGYYCAKAYHATSDYWGQGTQVTVSS”: the “polyreactivity (PSR sort gate)” value is “low polyreactivity”.

“QVQLVESGGGLFQAVGSLRLSCAASGLFFIKYTMGWYRQAPGKERELFAVISGSGGSTYYADSVKGRFTISRDNAKNTVYLQMNSLKPEDTAVYYCAARSYALGYGGGYWGQGTQVTVSS”: the “polyreactivity (PSR sort gate)” value is given as “high polyreactivity”.

For the sequence “QVQLVESGGGLFQEGGSLRVSCAASGRIFIANAMGWYRQAPGKERELVAAISFSGGSTYYADSVKGRFTISRDNAKSTVYLQLNSLKPEDTAVYFCIKVGIRYYYGYDYWGHGTQVTVSS”, the “polyreactivity (PSR sort gate)” value was “high polyreactivity”.

Regarding “QVQLVESGGGLGQAGCSLRLSCAASGSTFAVYAMGWYRQAPGKERELVATITGSGGSTYYADSVKGRFTISRDNAKNPVYLQMNSLKPEDNAVYYCAAEVVAWSLYEDFKTYDYWGQGTQVTVSS”, the “polyreactivity (PSR sort gate)” value is listed as “low polyreactivity”.

Take “QVQLVESGGGLGQAGGSLRLSCAASGFILRYNAMGWYRQAPGKERELVAAISYTGDRTYYADSVKGRFTISRDNAKNTVYLQMNSLKPEDTAVYYCKAGKGQRALVRIGSKLMYYWGHGTQVTVSS”: the “polyreactivity (PSR sort gate)” value is recorded as “high polyreactivity”.

Consider “QVQLVESGGGLGQAGGSLRLSCAASGITFGDYAMGWYIQAPGKERELVAAISTSGVRTYYADSVKGRFTISRDNAKNTVYLQMNSLKTEDTAVYYCAAKYYGEMYYWGQVTQVTVSS”, for which the “polyreactivity (PSR sort gate)” value is on record as “low polyreactivity”.

“QVQLVESGGGLGQAGGSLRLSCAASGLIFSPYDMGWYRQAPGKERELVGAISNGDSTNYADSVKGRFTISRDNAKNTVYLQMNSLKAEDTAVYYCNAAIPSWLEYEYWGQGTQVTVSS”: the “polyreactivity (PSR sort gate)” value is on record as “low polyreactivity”.

With “QVQLVESGGGLGQAGGSLRLSCAASGLTFLDYAMGWSRQAPGKERELVAAITSGGSTNYADSVKGRFTISRDKAKNTVYLQMNSLKPEDTAVYYFATDLEVSAYDYWGQGTQVTVSS”, the “polyreactivity (PSR sort gate)” value is listed as “low polyreactivity”.

With “QVQLVESGGGLGQAGGSLRLSCAASGNTFWAYAMGWYRQAPGKERELVAGISSRGSRTYFADSVKGRFTISRDNAKNTVYLQMNSLKPEDSAVDFCNALRTPPGYYPPFDYWGEGTQVTVSS”, the “polyreactivity (PSR sort gate)” value is “high polyreactivity”.

“QVQLVESGGGLGQAGGSLRLSCAASGRIFGYYAMGGYRQAPGKARELVAGIDWSGGNTYYADSVKGRFTISRDNAKNTVYLQMNSLKPEDTAVYYCAKYKGRGDSGYDSWGQGTQVTVSS”: the “polyreactivity (PSR sort gate)” value is recorded as “low polyreactivity”.
